Substrate in this data set: Nc1ncnc2c1ncn2[C@@H]1O[C@H](COP(=O)(O)OP(=O)(O)OP(=O)(O)O)[C@@H](O)[C@H]1O
Description: SRPK1 kinase assay, determination of Km for ATP (double-reciprocal plots, SF2/ASF as substrate). The format is biochemical, human. Particulars: other: ATP titrated against four SF2/ASF concentrations (bacterially expressed SF2/ASF as substrate), pH 7.4, 30.0 °C. The procedure:
FIG. 7 describes the kinetic properties of SRPK1. […] Different ATP concentrations were titrated against four SF2/ASF concentrations (.diamond-solid.0.05 μM; .circle-solid.0.1 μM; Δ0.05 μM; .diamond.0.7 μM). […] Five SF2/ASF concentrations (0.05 μM, 0.1 μM, 0.25 μM, 0.5 μM, and 1.0 μM) and four MBP concentrations (2.5 μM, 5.0 μM, 12.5 μM, and 25 μM) were used in the phosphorylation reactions. Saturating ATP (100 μM) and SRPK1 (27,000 units) were used in these reactions.
0.5 μg of purified SC35 or SF2/ASF was used as a substrate in a final volume of 20 μl kinase assay mixture containing 50 mM Tris-pH7.4, 10 mM MgCl2, 1 mM DTT, 2 μM ATP, and 2 μCi [^32 P-]ATP. The reaction was initiated by adding 2 μl of each column fraction and incubated at room temperature for 15 min. Proteins were, resolved in a 12.5% SDS gel. After staining and autoradiography, gel slices containing radioactive proteins were quantitated in a liquid scintillation counter. For saturation phosphorylation of SF2/ASF, 100 μM ATP was used, and the reaction was carried out at 30° C. for 2 hours.
SRPK1 is specific for splicing factors containing an SR domain as shown in EXAMPLE 4. Kinetic analyses were carried out to further characterize the kinase. […] The kinase activity depended on ATP concentration with a Km for ATP of 10 μM (FIG. 7A). […]

B1: SRPK1 (SR protein-specific kinase, 92 kD) purified from Hela cell S100 extracts, SEQ ID NO:2 (Homo sapiens) (protein)
chain: MERKVLALQARKKRTKAKKDKAQRKSETQHRGSAPHSESDLPEQEEEILGSDDDEQEDPNDYCKGGYHLVKIGDLFNGRYHVIRKLGWGHFSTVWLSWDIQGKKFVAMKVVKSAEHYTETALDEIRLLKSVRNSDPNDPNREMVVQLLDDFKISGVNGTHICMVFEVLGHHLLKWIIKSNYQGLPLPCVKKIIQQVLQGLDYLHTKCRIIHTDIKPENILLSVNEQYIRRLAAEATEWQRSGAPPPSGSAVSTAPQPKPADKMSKNKKKKLKKKQKRQAELLEKRMQEIEEMEKESGPGQKRPNKQEESESPVERPLKENPPNKMTQEKLEESSTIGQDQTLMERDTEGGAAEINCNGVIEVINYTQNSNNETLRHKEDLHNANDCDVQNLNQESSFLSSQNGDSSTSQETDSCTPITSEVSDTMVCQSSSTVGQSFSEQHISQLQESIRAEIPCEDEQEQEHNGPLDNKGKSTAGNFLVNPLEPKNAEKLKVKIADLGNACWVHKHFTEDIQTRQYRSLEVLIGSGYNTPADIWSTACMAFELATGDYLFEPHSGEEYTRDEDHIALIIELLGKVPRKLIVAGKYSKEFFTKKGDLKHITKLKPWGLFEVLVEKYEWSQEEAAGFTDFLLPMLELIPEKRATAAECLRHPWLNS
notes: SRPK1 PURIFICATION FROM HELA CELL S100 EXTRACTS; endogenous in cells; host or cells: HeLa cells (S100 extract; phosphocellulose P11, Phenyl Sepharose, Mono Q, Mono S)
A word on the Km: it is the substrate concentration at which the rate is half of its maximum. In the case of B1, the Km is 10 µM.

The values are drawn from patent US5559019A, “Protein serine kinase, SRPK1” (The Regents of the University of California, priority 1994, dated 1996).
